Measurements: the Human Domainome abundance scans (Beltran et al. 2025)
± gives the uncertainty stated by the source.

Assay: abundance fitness (aPCA) (normalised: wild type 0, dead -1); higher = more abundant; growth selection in yeast, the domain comes from the species named
Details: Homo sapiens
“DnaJ homolog subfamily B member 1 Y5A, P25685” showed an abundance fitness of -0.316 ± 0.13. With “DnaJ homolog subfamily B member 1 Y5C, P25685” the abundance fitness was -0.164 ± 0.18. “DnaJ homolog subfamily B member 1 Y5E, P25685” showed an abundance fitness of -0.808 ± 0.28. With “DnaJ homolog subfamily B member 1 Y5F, P25685” the abundance fitness was -0.449 ± 0.16. Work on “DnaJ homolog subfamily B member 1 Y5G, P25685” yielded an abundance fitness of -0.672 ± 0.092. With “DnaJ homolog subfamily B member 1 Y5H, P25685” the abundance fitness was 0.024 ± 0.068. For “DnaJ homolog subfamily B member 1 Y5I, P25685”, the abundance fitness was -0.416 ± 0.21. In the case of “DnaJ homolog subfamily B member 1 Y5K, P25685”, the abundance fitness is reported as -0.493 ± 0.15. Substance “DnaJ homolog subfamily B member 1 Y5L, P25685” has an abundance fitness of -0.284 ± 0.14. “DnaJ homolog subfamily B member 1 Y5M, P25685” gave an abundance fitness of -0.179 ± 0.11. For “DnaJ homolog subfamily B member 1 Y5N, P25685”, the abundance fitness was -0.392 ± 0.12. With “DnaJ homolog subfamily B member 1 Y5P, P25685” the abundance fitness was -0.232 ± 0.15. Work on “DnaJ homolog subfamily B member 1 Y5Q, P25685” yielded an abundance fitness of -0.3 ± 0.15. Substance “DnaJ homolog subfamily B member 1 Y5R, P25685” has an abundance fitness of -0.52 ± 0.11. In the case of “DnaJ homolog subfamily B member 1 Y5S, P25685”, the abundance fitness is reported as -0.262 ± 0.1. “DnaJ homolog subfamily B member 1 Y5T, P25685” showed an abundance fitness of -0.699 ± 0.24. With “DnaJ homolog subfamily B member 1 Y5V, P25685” the abundance fitness was -1.47 ± 0.2. “DnaJ homolog subfamily B member 1 Y5W, P25685” showed an abundance fitness of -0.305 ± 0.22. With “DnaJ homolog subfamily B member 1 Y6A, P25685” the abundance fitness was -0.991 ± 0.18. “DnaJ homolog subfamily B member 1 Y6C, P25685” showed an abundance fitness of -0.863 ± 0.22. Work on “DnaJ homolog subfamily B member 1 Y6D, P25685” yielded an abundance fitness of -0.747 ± 0.16. In the case of “DnaJ homolog subfamily B member 1 Y6E, P25685”, the abundance fitness is reported as -0.683 ± 0.097. In the case of “DnaJ homolog subfamily B member 1 Y6F, P25685”, the abundance fitness is reported as -0.162 ± 0.16. Work on “DnaJ homolog subfamily B member 1 Y6G, P25685” yielded an abundance fitness of -0.977 ± 0.2. Work on “DnaJ homolog subfamily B member 1 Y6K, P25685” yielded an abundance fitness of -0.911 ± 0.15. With “DnaJ homolog subfamily B member 1 Y6M, P25685” the abundance fitness was -0.806 ± 0.11. For “DnaJ homolog subfamily B member 1 Y6N, P25685”, the abundance fitness was -0.523 ± 0.13. Work on “DnaJ homolog subfamily B member 1 Y6P, P25685” yielded an abundance fitness of -0.589 ± 0.2. Work on “DnaJ homolog subfamily B member 1 Y6Q, P25685” yielded an abundance fitness of -0.742 ± 0.13. Work on “DnaJ homolog subfamily B member 1 Y6R, P25685” yielded an abundance fitness of -0.986 ± 0.1. For “DnaJ homolog subfamily B member 1 Y6S, P25685”, the abundance fitness was -0.817 ± 0.072. For “DnaJ homolog subfamily B member 1 Y6T, P25685”, the abundance fitness was -0.557 ± 0.11. For “DnaJ homolog subfamily B member 1 Y6V, P25685”, the abundance fitness was -1.18 ± 0.086. For “DnaJ homolog subfamily B member 1 Y6W, P25685”, the abundance fitness was -0.204 ± 0.13. Work on “DnaJ homolog subfamily B member 1 Y24A, P25685” yielded an abundance fitness of -0.686 ± 0.24. “DnaJ homolog subfamily B member 1 Y24C, P25685” showed an abundance fitness of -0.504 ± 0.086. In the case of “DnaJ homolog subfamily B member 1 Y24D, P25685”, the abundance fitness is reported as -0.654 ± 0.16. In the case of “DnaJ homolog subfamily B member 1 Y24E, P25685”, the abundance fitness is reported as -0.411 ± 0.1. “DnaJ homolog subfamily B member 1 Y24F, P25685” gave an abundance fitness of -0.075 ± 0.2. Substance “DnaJ homolog subfamily B member 1 Y24G, P25685” has an abundance fitness of -0.499 ± 0.1. “DnaJ homolog subfamily B member 1 Y24H, P25685” showed an abundance fitness of -0.38 ± 0.2. “DnaJ homolog subfamily B member 1 Y24I, P25685” showed an abundance fitness of -0.788 ± 0.2.
